Consider 7 sequences from article PMC3315491.

This data set addresses T1, EspR (UniProt P9WJB7).
T1 sequence: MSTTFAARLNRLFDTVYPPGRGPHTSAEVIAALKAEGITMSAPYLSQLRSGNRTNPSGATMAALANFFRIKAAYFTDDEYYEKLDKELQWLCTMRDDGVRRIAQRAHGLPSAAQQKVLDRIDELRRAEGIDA
In words: EMSA.

Turning to “ACTTGAGTTCTTCAGCAATGATGCATGCACGACTGTAGACCTGCGACCAAGTCAAGCTGTCAGCAAATCCCTTGGGGTCGGATCCGTAGTCGATGTACGTATATGCAGTGCTGTCAGGCT (double strand) [fadD26 peak probe]”, the binding entry is recorded as “binds more weakly”.
Turning to “GCTCATCGATGTGACCTCCACCGGGCTCCAAGAGCAAACGGTTATCTGTATGTATTTGCTGATCATGGTAGCGACAGTTGTGTCCACAACCAAGTGCAAACCTGAGCGGATT (double strand) [espR peak a EMSA probe]”, the binding entry is listed as “binds”.
As to “TGCGTCGGTTAGTCTCTTTTTCGACCTTGGGGCGCGGAGGGTCGTTATGGTGTGTCACAGTGCTTTGCTGTCAAAGGCATTGGCGGTGCCGACCAAGCGACACT (double strand) [rv1490 peak probe]”, the binding entry is “binds”.
With “TCAGGATGACCGTGTCGGGCGGATGCGGCCGACTCCGGGCAACCAGCAGCCAACGGAGATTCGCCGAGAGCCTCCTTTGCTGCCTGGGTCCGCACAGCGCTCGTCAGGCGA (double strand) [espR peak b EMSA probe]”, the binding entry is reported as “binds”.
Turning to “GAAAACCGCCCCAGTTGCGGTGTGCGCTAGTTAACATCGCAACTACATATCAGCAAATCAGGGAGAGGAAACCGTGTCGTTTGTGTTGGTGTCTCCGTCGCA (double strand) [pe_pgrs19 peak probe]”, the binding entry is listed as “binds”.
As to “ACCTCAACGACAATTTGCCAGAGCTAGTCAGCGACATAGAAGACAAAACACTCCAATGGCATGATCGAGCTTAGCTATGCTCCGGATGTAGCTGGCCGAAGAT (double strand) [rv2929 peak probe]”, the binding entry is “binds”.
The same measure for “GCTTGTCCCAAAGCTCTTTCAGGCCGTTGAGCGCGTTTGTGATGAACTCCCACACTTCTCCGAGGGTGCCCTTGATGATGTCCGCCACATCCGAAATGAT (double strand) [espA ORF negative control probe]”: “no binding”.
